Numbering of substitutions follows the chain as printed.
B1: 064-40.1C7 (designed binder)
chain: ALQTVCLKGTKVHMKCFLAFTQTKTFHEASEDCISRGGTLSTPQTGSENDALYEYLRQSVGNEAEIWLGLNGWLEGVGWVDMTGARIAYKNWETEITAQPDGGGGVRWENCAVLSGAANGKWFDKRCRDQLPYICQFGIV
notes: on phage
B2: 014-42.3D9 (designed binder)
chain: B1 chain with W73Y, E75A, G104R, V106F
notes: on phage
B3: 029-62.2C5 (designed binder)
chain: ALQTVCLKGTKVHMKCFLAFTQTKTFHEASEDCISRGGTLSTPQTGSENDALYEYLRQSVGNEAEIWLGLNVRRMGFHWVDMTGARIAYKNWETEITAQPDGGRVAVGENCAVLSGAANGKWFDKRCRDQLPYICQFGIV
notes: on phage
B4: 029-62.2B3 (designed binder)
chain: B3 chain with V72R, R73Y, R74H, M75V, G76Q, F77A, H78L, A106R, V107P, G108R
notes: on phage
B5: 064-21.1A5 (designed binder)
chain: B1 chain with W73F, E75Q, V77N, G104M, G105W, V106D
notes: on phage
B6: 029-61.1A5 (designed binder)
chain: B1 chain with E75M, V77T, G104W, G105W, V106N
notes: on phage
B7: 014-40.3E11 (designed binder)
chain: B1 chain with W73Y, E75A, V77Y, G104P, G105S, V106I, R107W, W108R
notes: on phage
B8: 014-42.3G8 (designed binder)
chain: B1 chain with E75Q, G104R, V106W, R107P
notes: on phage
B9: 029-62.7D10 (designed binder)
chain: B1 chain with W73L, L74A, E75R, G76Q, V77Q, G104K, V106R, R107P, W108R
notes: on phage
B10: 014-40.3B3 (designed binder)
chain: B1 chain with W73Y, L74M, E75S, V77Y, G104M, G105M, V106A
notes: on phage
B11: 014-40.3B2 (designed binder)
chain: B1 chain with W73Y, L74I, V77T, G104S, G105N, V106W, R107A
notes: on phage
B12: 029-62.4F5 (designed binder)
chain: ALQTVCLKGTKVHMKCFLAFTQTKTFHEASEDCISRGGTLSTPQTGSENDALYEYLRQSVGNEAEIWLGLNIQCSPPLWVDMTGARIAYKNWETEITAQPDGGAVQQQENCAVLSGAANGKWFDKRCRDQLPYICQFGIV
notes: on phage
B13: 014-40.3H2 (designed binder)
chain: B12 chain with I72M, Q73V, C74T, S75R, L78Y, A104W, Q106M, Q107S, Q108F
notes: on phage
B14: 014-42.3C7 (designed binder)
chain: B1 chain with V77Y, G104T, G105W, V106W, R107E
notes: on phage
B15: 014-40.3A3 (designed binder)
chain: B1 chain with W73F, L74M, E75V, V77R, G104S, G105M, V106W, R107P
notes: on phage
B16: 014-40.3E9 (designed binder)
chain: B12 chain with I72P, Q73F, C74R, S75V, P77Q, L78W, A104Y, V105G, Q106P, Q107V
notes: on phage

Biological target: T1, recombinant human TRAIL R1 (DR4)/Fc chimera (human, UniProt O00220 24-239)
T1 construct: bought (R&D Systems); not shown: Fc of the bought chimera (R&D Systems)
T1 sequence: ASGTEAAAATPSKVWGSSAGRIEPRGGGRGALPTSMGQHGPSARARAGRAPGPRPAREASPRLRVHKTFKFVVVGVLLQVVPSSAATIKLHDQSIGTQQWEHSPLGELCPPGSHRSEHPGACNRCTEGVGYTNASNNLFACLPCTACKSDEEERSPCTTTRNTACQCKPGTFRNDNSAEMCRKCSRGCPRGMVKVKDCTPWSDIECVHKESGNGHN
Test: phage ELISA on DR4/Fc
Experimental: The remaining overnight culture was used to make a master stock plate by adding 100 μL of 50% glycerol to each well and storing at −80° C. The replica culture plate was grown at 37° C. with shaking at 250 rpm for approximately 2 hrs until the OD₆₀₀ was 0.5-0.7. The wells were then infected with K07 helper phage to 5×10⁹ pfu/mL mixed and incubated at 37° C. for 30 minutes without shaking, then incubated an addition 30 minutes at 37° C. with shaking at 250 rpm. The cultures were then spun down at 2500 rpm and 4° C. for 20 minutes. The supernatants were removed from the wells and the bacterial cell pellets were re-suspended in 500 μL of 2xYT containing 50 μg/mL carbenicillin and 50 μg/mL kanamycin. An air-permeable membrane was placed on the culture block and cells were grown overnight at room temperature with shaking at 250 rpm.
On day 3, cultures were spun down and supernatants containing the phage were blocked with 3% milk/PBS for 1 hr at room temperature. An initial Phage ELISA was performed using 75-100 ng of antigen bound per well. Non-specific binding was measured using 75-100 ng of human IgG1 Fc per well. DR4/Fc antigen (R&D Systems)-coated wells and IgG Fc coated wells were prepared fresh the night before by binding the above amount of antigen diluted in 100 μL of PBS per well. Antigen plates were incubated overnight at 4° C. then for 1 hour at 37° C., washed twice with PBS/0.05% Tween 20 and twice with PBS, and then blocked with 3% milk/PBS for 1 hr at 37° C. prior to the ELISA. Blocked phage were bound to blocked antigen-bound plates for 1 hr then washed twice with 0.05% Tween 20/PBS and then twice more with PBS. A HRP-conjugated anti-M13 secondary antibody diluted in 3% milk/PBS was then applied, with binding for 1 hr and washing as described above. The ELISA signal was developed using 90 μL TMB substrate mix and then stopped with 90 μL 0.2 M sulfuric acid, then ELISA plates were read at 450 nm. […] Secondary ELISA screens were performed similarly to the protocol detailed above.

Binder | binding result
B1 | binds
B2 | binds
B3 | binds
B4 | binds
B5 | binds
B6 | binds
B7 | binds
B8 | binds
B9 | binds
B10 | binds
B11 | binds
B12 | binds
B13 | binds
B14 | binds
B15 | binds
B16 | binds
